# From the supplement of paper PMC9112550, “Optimization of the antimicrobial peptide Bac7 by deep mutational scanning” (BMC Biology, 2022)
# Tested on: Escherichia coli TOP10
# Assay: shrunken log2 fold change of peptide-encoding DNA abundance (4.5 h post-induction vs induction); higher = less antimicrobial activity (less host growth inhibition)
# Settings: time post-induction: 4.5 h; library: site-saturation at positions 5, 18, 19, 20
# 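Note: peptides expressed intracellularly from a pBAD plasmid library in pooled LB shake-flask culture, induced with 0.3% L-arabinose, DNA abundance read by NGS, three biological replicates, DESeq2 with apeglm shrinkage.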
row,Sequence,shrunken log2 fold change
1,RRIRSRPPRLPRPRPRPSSTPRP,-0.397
2,RRIRCRPPRLPRPRPRPRQQPRP,-0.245
3,RRIRDRPPRLPRPRPRPRMKPRP,0.0166
4,RRIRNRPPRLPRPRPRPRTMPRP,0.135
5,RRIRMRPPRLPRPRPRPPVFPRP,0.704
6,RRIRYRPPRLPRPRPRPGNEPRP,-0.229
7,RRIRERPPRLPRPRPRPVMDPRP,-0.0467
8,RRIRCRPPRLPRPRPRPSAGPRP,0.194
9,RRIRIRPPRLPRPRPRPRDAPRP,0.215
10,RRIRHRPPRLPRPRPRPSGPPRP,0.082
11,RRIRFRPPRLPRPRPRPMIGPRP,0.0266
12,RRIRFRPPRLPRPRPRPCYFPRP,-0.379
13,RRIRWRPPRLPRPRPRPSPQPRP,0.266
14,RRIRIRPPRLPRPRPRPKAMPRP,-0.161
15,RRIRVRPPRLPRPRPRPCFAPRP,0.116
16,RRIRCRPPRLPRPRPRPKGAPRP,0.492
17,RRIRKRPPRLPRPRPRPAMSPRP,-0.146
18,RRIRWRPPRLPRPRPRPGVMPRP,0.477
19,RRIRNRPPRLPRPRPRPDSPPRP,-0.0758
20,RRIRGRPPRLPRPRPRPYPGPRP,-0.0165
21,RRIRVRPPRLPRPRPRPWHMPRP,-0.672
22,RRIRERPPRLPRPRPRPFYLPRP,-0.648
23,RRIRHRPPRLPRPRPRPNIRPRP,0.0598
24,RRIRMRPPRLPRPRPRPEGYPRP,2.64
25,RRIRQRPPRLPRPRPRPDFSPRP,0.0756

row,Sequence,shrunken log2 fold change
1,RRIRQRPPRLPRPRPRPYVCPRP,-0.0671
2,RRIRERPPRLPRPRPRPYLMPRP,-0.696
3,RRIRRRPPRLPRPRPRPTAAPRP,1.21
4,RRIRMRPPRLPRPRPRPFFTPRP,-0.054
5,RRIRYRPPRLPRPRPRPCSWPRP,-0.272
6,RRIRRRPPRLPRPRPRPNMGPRP,-0.108
7,RRIRQRPPRLPRPRPRPNFNPRP,-0.295
8,RRIRARPPRLPRPRPRPNRNPRP,-0.266
9,RRIRNRPPRLPRPRPRPRWQPRP,-0.00911
10,RRIRQRPPRLPRPRPRPMSDPRP,-0.0194
11,RRIRCRPPRLPRPRPRPSASPRP,0.165
12,RRIRSRPPRLPRPRPRPSIIPRP,-0.253
13,RRIRERPPRLPRPRPRPCTTPRP,-0.172
14,RRIRIRPPRLPRPRPRPRKSPRP,-0.169
15,RRIRMRPPRLPRPRPRPERYPRP,0.362
16,RRIRSRPPRLPRPRPRPQHQPRP,-0.0399
17,RRIRCRPPRLPRPRPRPSVFPRP,-0.614
18,RRIRQRPPRLPRPRPRPEHLPRP,-0.00142
19,RRIRTRPPRLPRPRPRPHIVPRP,-0.102
20,RRIRSRPPRLPRPRPRPVVAPRP,0.608
21,RRIRPRPPRLPRPRPRPWMCPRP,-0.366
22,RRIRERPPRLPRPRPRPKFSPRP,-0.0396
23,RRIRQRPPRLPRPRPRPRVEPRP,-0.0308
24,RRIRHRPPRLPRPRPRPQTWPRP,-0.332
25,RRIRVRPPRLPRPRPRPSIEPRP,-0.255

row,Sequence,shrunken log2 fold change
1,RRIRYRPPRLPRPRPRPTMDPRP,-0.67
2,RRIRVRPPRLPRPRPRPDIFPRP,-0.171
3,RRIRSRPPRLPRPRPRPRFCPRP,0.23
4,RRIRNRPPRLPRPRPRPNACPRP,-0.0239
5,RRIRARPPRLPRPRPRPSEGPRP,-0.00533
6,RRIRGRPPRLPRPRPRPIIVPRP,-0.043
7,RRIRIRPPRLPRPRPRPEPRPRP,0.563
8,RRIRGRPPRLPRPRPRPCMMPRP,0.145
9,RRIRTRPPRLPRPRPRPPDPPRP,0.197
10,RRIRIRPPRLPRPRPRPKLTPRP,0.0656
11,RRIRFRPPRLPRPRPRPAISPRP,-0.193
12,RRIRPRPPRLPRPRPRPVPYPRP,-0.253
13,RRIRVRPPRLPRPRPRPPYGPRP,0.024
14,RRIRGRPPRLPRPRPRPWQKPRP,0.09
15,RRIRTRPPRLPRPRPRPKWLPRP,0.247
16,RRIRLRPPRLPRPRPRPTQFPRP,0.192
17,RRIRCRPPRLPRPRPRPKLPPRP,-0.0559
18,RRIRIRPPRLPRPRPRPRCEPRP,-0.0571
19,RRIRCRPPRLPRPRPRPNIVPRP,-0.34
20,RRIRERPPRLPRPRPRPHKFPRP,-0.984
21,RRIRHRPPRLPRPRPRPMIIPRP,-0.205
22,RRIRYRPPRLPRPRPRPAFWPRP,0.444
23,RRIRVRPPRLPRPRPRPNGMPRP,-0.32
24,RRIRTRPPRLPRPRPRPPRMPRP,0.165
25,RRIRLRPPRLPRPRPRPKPGPRP,0.396

row,Sequence,shrunken log2 fold change
1,RRIRKRPPRLPRPRPRPLARPRP,0.213
2,RRIRWRPPRLPRPRPRPMANPRP,0.21
3,RRIRTRPPRLPRPRPRPILDPRP,0.0371
4,RRIRDRPPRLPRPRPRPKAAPRP,0.0214
5,RRIRCRPPRLPRPRPRPIMLPRP,-0.587
6,RRIRDRPPRLPRPRPRPGHHPRP,0.0913
7,RRIRRRPPRLPRPRPRPVTHPRP,0.598
8,RRIRSRPPRLPRPRPRPENYPRP,-0.127
9,RRIRVRPPRLPRPRPRPDKTPRP,-0.0309
10,RRIRCRPPRLPRPRPRPIWRPRP,0.285
11,RRIRERPPRLPRPRPRPAKMPRP,-0.194
12,RRIRKRPPRLPRPRPRPSFAPRP,0.337
13,RRIRYRPPRLPRPRPRPMNAPRP,-0.00745
14,RRIRQRPPRLPRPRPRPIACPRP,-0.238
15,RRIRSRPPRLPRPRPRPNRMPRP,0.309
16,RRIRVRPPRLPRPRPRPTTFPRP,-0.118
17,RRIRIRPPRLPRPRPRPQEEPRP,0.0133
18,RRIRLRPPRLPRPRPRPHLRPRP,-0.151
19,RRIRFRPPRLPRPRPRPMATPRP,-0.227
20,RRIRFRPPRLPRPRPRPFTFPRP,-0.41
21,RRIRNRPPRLPRPRPRPGYEPRP,0.0608
22,RRIRIRPPRLPRPRPRPHEEPRP,-0.031
23,RRIRIRPPRLPRPRPRPGSSPRP,-0.486
24,RRIRLRPPRLPRPRPRPEHAPRP,-0.00513
25,RRIRIRPPRLPRPRPRPPIKPRP,-0.4

row,Sequence,shrunken log2 fold change
1,RRIRTRPPRLPRPRPRPVPFPRP,0.0392
2,RRIRHRPPRLPRPRPRPSSCPRP,-0.0272
3,RRIRPRPPRLPRPRPRPFMVPRP,-0.478
4,RRIRPRPPRLPRPRPRPYVKPRP,-0.172
5,RRIRWRPPRLPRPRPRPADCPRP,-0.00218
6,RRIRHRPPRLPRPRPRPWFHPRP,-0.525
7,RRIRCRPPRLPRPRPRPPQMPRP,0.0913
8,RRIRHRPPRLPRPRPRPMNKPRP,-0.329
9,RRIRLRPPRLPRPRPRPTLPPRP,0.223
10,RRIRMRPPRLPRPRPRPTMYPRP,0.187
11,RRIRSRPPRLPRPRPRPMGFPRP,-0.0207
12,RRIRLRPPRLPRPRPRPKDEPRP,0.114
13,RRIRNRPPRLPRPRPRPGCRPRP,0.123
14,RRIRWRPPRLPRPRPRPRRLPRP,0.474
15,RRIRERPPRLPRPRPRPRKWPRP,0.316
16,RRIRQRPPRLPRPRPRPMHSPRP,-0.165
17,RRIRMRPPRLPRPRPRPNTFPRP,0.105
18,RRIRSRPPRLPRPRPRPILVPRP,0.0112
19,RRIRERPPRLPRPRPRPWMWPRP,0.0673
20,RRIRMRPPRLPRPRPRPLNEPRP,0.216
21,RRIRLRPPRLPRPRPRPECQPRP,-0.00577
22,RRIRDRPPRLPRPRPRPGRFPRP,0.315
23,RRIRLRPPRLPRPRPRPLKPPRP,0.171
24,RRIRKRPPRLPRPRPRPQKMPRP,0.0795
25,RRIRLRPPRLPRPRPRPFCRPRP,0.0702
